Data reported in doi:10.1101/2023.03.09.531510.

Tests used:
Assay in all cases: protein-fragment complementation
Lsb3 = Lsb3 (UniProt P43603)
Pkh2 = biological target: Pkh2
Chc1 = Chc1 (UniProt P22137)
Arc40 = Arc40 (UniProt P38328)
Arc19 = Arc19 (UniProt P33204)
Bbc1 = Bbc1 (UniProt P47068)
Rvs167 = Rvs167 (UniProt P39743)
Hek2 = Hek2 (UniProt P38199)
Sfk1 = Sfk1 (UniProt P35735)
Cmd1 = Cmd1 (UniProt P06787)
Hsp104 = Hsp104 (UniProt P31539)
Cdc10 = Cdc10 (UniProt P25342)
Sla1 = Sla1 (UniProt P32790)
Mid2 = Mid2 (UniProt P36027)
Bmh1 = Bmh1 (UniProt P29311)
Tdh3 = Tdh3 (UniProt P00359)
Ysc84 = Ysc84 (UniProt P32793)
Syp1 = Syp1 (UniProt P25623)
Ssz1 = Ssz1 (UniProt P38788)
Ssb1 = Ssb1 (UniProt P11484)
Nap1 = Nap1 (UniProt P25293)
Ste20 = Ste20 (UniProt Q03497)
Tif4631 = Tif4631 (UniProt P39935)
Las17 = Las17 (UniProt Q12446)
Arc18 = Arc18 (UniProt Q05933)
Myo5 = Myo5 (UniProt Q04439)
Yor1 = Yor1 (UniProt P53049)
Arc15 = Arc15 (UniProt P40518)
Osh2 = Osh2 (UniProt Q12451)
Cdc3 = Cdc3 (UniProt P32457)
Sla2 = Sla2 (UniProt P33338)
Pfk1 = Pfk1 (UniProt P16861)
Aim21 = Aim21 (UniProt P40563)
Bzz1 = Bzz1 (UniProt P38822)
Sbp1 = Sbp1 (UniProt P10080)
Vrp1 = Vrp1 (UniProt P37370)
Pab1 = Pab1 (UniProt P04147)
Ygl242c = Ygl242c (UniProt P53066)
Pan1 = Pan1 (UniProt P32521)
Sac6 = Sac6 (UniProt P32599)
Ssb2 = Ssb2 (UniProt P40150)
Smi1 = Smi1 (UniProt P32566)
Srv2 = Srv2 (UniProt P17555)
Ssa1 = Ssa1 (UniProt P10591)
UniProt P10591, sequence (P10591 whole entry): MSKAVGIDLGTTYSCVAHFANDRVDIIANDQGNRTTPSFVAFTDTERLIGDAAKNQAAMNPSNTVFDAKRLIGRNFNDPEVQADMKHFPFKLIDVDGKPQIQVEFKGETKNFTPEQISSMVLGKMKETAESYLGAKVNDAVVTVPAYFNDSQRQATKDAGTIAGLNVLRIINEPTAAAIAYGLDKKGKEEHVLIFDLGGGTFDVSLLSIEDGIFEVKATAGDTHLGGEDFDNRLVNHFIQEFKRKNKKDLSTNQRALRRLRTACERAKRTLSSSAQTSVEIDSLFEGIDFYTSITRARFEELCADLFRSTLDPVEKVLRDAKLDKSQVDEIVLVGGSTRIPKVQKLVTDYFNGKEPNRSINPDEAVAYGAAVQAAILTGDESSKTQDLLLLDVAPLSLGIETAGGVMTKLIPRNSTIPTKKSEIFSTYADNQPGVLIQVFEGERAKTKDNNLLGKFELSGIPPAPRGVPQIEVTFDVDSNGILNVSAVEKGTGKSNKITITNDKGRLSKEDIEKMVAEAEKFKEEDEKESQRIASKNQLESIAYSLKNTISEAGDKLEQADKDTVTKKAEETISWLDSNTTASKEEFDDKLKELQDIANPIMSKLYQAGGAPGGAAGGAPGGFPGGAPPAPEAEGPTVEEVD

UniProt P39743, sequence (P39743 whole entry): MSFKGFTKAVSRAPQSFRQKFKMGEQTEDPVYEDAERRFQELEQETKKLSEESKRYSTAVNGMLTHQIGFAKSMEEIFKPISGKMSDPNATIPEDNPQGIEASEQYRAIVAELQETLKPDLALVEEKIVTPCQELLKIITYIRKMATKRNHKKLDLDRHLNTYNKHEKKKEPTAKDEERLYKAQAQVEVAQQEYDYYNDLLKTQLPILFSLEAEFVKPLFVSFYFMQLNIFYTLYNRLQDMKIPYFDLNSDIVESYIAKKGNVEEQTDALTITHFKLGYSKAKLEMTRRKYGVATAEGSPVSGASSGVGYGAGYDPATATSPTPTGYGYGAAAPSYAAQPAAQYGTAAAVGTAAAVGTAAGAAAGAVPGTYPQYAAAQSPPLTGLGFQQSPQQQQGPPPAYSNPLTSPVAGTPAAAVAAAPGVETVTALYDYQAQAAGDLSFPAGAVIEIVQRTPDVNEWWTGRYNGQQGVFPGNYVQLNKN
UniProt P38788, sequence (P38788 whole entry): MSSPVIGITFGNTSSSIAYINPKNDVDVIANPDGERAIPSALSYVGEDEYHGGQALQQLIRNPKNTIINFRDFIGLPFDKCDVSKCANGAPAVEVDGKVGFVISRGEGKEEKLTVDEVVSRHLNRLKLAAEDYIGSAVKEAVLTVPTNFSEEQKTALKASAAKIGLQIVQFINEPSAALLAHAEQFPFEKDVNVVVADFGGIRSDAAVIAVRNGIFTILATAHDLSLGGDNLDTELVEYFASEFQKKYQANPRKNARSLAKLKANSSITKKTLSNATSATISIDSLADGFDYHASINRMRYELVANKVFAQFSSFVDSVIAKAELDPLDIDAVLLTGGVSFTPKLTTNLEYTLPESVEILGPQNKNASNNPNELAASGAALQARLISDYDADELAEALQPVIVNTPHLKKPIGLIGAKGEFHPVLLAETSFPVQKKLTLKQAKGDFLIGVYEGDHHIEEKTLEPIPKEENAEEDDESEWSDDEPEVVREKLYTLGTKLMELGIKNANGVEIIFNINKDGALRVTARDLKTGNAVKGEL
UniProt P31539, sequence (P31539 whole entry): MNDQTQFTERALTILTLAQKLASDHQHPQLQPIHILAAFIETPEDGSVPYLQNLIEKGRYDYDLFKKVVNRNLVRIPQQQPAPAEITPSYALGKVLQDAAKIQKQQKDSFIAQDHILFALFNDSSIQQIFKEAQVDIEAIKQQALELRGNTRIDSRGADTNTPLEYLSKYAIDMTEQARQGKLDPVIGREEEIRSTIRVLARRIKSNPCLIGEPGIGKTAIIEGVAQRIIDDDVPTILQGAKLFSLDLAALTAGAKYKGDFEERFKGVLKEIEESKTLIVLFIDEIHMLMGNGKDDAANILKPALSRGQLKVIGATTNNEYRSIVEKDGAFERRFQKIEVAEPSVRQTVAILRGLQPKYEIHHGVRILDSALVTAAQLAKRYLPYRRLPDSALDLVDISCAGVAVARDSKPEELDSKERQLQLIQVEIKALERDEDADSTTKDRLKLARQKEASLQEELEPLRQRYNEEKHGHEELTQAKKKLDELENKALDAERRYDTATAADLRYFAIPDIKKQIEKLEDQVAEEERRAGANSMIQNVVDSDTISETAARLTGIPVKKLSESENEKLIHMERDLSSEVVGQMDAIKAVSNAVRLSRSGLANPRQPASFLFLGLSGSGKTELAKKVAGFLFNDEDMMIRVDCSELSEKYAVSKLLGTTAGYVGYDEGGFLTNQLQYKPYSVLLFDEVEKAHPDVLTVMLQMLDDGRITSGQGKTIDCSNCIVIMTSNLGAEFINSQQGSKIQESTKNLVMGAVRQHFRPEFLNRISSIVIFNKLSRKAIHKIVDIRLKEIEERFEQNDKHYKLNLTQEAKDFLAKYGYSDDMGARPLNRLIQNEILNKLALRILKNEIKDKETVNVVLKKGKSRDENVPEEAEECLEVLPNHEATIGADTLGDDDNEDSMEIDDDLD
UniProt P32457, sequence (P32457 whole entry): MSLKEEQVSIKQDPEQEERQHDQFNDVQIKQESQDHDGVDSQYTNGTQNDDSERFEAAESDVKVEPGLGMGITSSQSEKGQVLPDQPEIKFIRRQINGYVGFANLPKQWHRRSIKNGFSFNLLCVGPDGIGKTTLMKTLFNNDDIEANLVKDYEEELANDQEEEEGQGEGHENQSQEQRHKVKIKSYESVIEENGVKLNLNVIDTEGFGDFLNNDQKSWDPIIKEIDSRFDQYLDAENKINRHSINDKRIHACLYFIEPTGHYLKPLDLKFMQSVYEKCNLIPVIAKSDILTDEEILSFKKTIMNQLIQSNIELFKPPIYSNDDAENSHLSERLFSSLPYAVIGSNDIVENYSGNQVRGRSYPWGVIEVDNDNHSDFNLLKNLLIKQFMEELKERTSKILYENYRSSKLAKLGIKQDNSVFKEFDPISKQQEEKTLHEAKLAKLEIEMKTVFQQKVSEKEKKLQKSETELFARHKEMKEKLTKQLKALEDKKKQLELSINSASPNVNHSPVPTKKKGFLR
UniProt P32793, sequence (P32793 whole entry): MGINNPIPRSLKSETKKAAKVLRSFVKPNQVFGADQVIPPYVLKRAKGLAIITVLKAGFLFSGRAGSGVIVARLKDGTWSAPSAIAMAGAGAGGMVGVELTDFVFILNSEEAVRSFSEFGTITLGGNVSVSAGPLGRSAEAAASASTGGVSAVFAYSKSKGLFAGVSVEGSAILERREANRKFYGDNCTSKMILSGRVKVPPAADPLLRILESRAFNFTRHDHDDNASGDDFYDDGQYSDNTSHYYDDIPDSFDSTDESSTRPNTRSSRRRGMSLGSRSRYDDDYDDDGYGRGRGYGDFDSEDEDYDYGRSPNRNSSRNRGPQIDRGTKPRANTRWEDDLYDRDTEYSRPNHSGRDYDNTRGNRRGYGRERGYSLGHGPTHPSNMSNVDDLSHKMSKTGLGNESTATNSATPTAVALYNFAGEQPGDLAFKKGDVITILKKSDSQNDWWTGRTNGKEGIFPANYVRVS
UniProt P32790, sequence (P32790 whole entry): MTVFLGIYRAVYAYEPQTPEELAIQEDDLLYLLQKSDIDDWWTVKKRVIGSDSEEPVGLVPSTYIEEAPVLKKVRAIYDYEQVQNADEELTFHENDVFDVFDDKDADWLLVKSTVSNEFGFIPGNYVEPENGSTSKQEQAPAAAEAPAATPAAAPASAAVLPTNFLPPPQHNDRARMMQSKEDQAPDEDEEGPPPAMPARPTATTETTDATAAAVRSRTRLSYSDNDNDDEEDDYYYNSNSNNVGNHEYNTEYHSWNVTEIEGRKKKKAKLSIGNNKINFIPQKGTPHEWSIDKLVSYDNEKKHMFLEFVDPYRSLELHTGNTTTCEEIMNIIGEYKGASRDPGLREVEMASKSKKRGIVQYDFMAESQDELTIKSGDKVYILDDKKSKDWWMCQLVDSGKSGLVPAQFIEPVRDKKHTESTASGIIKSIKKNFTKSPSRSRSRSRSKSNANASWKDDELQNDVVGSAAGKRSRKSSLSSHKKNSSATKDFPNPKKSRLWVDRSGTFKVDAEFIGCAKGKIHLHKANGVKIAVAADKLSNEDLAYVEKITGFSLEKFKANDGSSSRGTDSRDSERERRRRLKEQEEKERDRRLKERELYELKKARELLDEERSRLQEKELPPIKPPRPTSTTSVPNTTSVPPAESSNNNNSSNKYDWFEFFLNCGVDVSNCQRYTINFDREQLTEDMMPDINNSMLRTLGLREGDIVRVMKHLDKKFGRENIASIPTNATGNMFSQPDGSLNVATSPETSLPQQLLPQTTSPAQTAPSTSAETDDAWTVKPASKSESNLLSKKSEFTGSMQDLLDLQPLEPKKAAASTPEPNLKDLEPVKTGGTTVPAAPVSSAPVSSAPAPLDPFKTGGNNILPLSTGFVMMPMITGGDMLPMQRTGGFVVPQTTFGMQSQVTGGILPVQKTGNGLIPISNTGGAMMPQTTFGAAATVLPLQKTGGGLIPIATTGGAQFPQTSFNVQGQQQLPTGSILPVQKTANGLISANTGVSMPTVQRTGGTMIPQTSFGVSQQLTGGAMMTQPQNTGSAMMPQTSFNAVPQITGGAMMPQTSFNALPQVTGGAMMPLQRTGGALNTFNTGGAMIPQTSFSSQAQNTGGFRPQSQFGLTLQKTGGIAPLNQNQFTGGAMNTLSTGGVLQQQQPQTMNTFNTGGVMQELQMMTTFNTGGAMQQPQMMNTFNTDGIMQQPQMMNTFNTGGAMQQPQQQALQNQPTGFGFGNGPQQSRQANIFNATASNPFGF
UniProt P53066, sequence (P53066 whole entry): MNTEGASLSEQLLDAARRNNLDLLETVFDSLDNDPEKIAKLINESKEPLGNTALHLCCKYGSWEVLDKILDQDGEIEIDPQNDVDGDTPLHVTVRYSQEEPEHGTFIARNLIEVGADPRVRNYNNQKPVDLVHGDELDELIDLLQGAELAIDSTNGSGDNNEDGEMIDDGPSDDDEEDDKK

Substance: Myo5 with SH3 AncB (from UniProt Q04439)
- interaction score (Lsb3): 0.637
- interaction score (Pkh2): 0.0795
- interaction score (Chc1): 0.603
- interaction score (Arc40): 0.964
- interaction score (Arc19): 0.771
- interaction score (Bbc1): 0.758
- interaction score (Rvs167): 0.567
- interaction score (Hek2): 0.417
- interaction score (Sfk1): 0.733
- interaction score (Cmd1): 0.497
- interaction score (Hsp104): 0.767
- interaction score (Cdc10): 0.416
- interaction score (Sla1): 0.568
- interaction score (Mid2): 0.854
- interaction score (Bmh1): 0.823
- interaction score (Tdh3): 0.97
- interaction score (Ysc84): 0.505
- interaction score (Syp1): 0.564
- interaction score (Ssz1): 0.834
- interaction score (Ssb1): 0.941
- interaction score (Nap1): 0.52
- interaction score (Ste20): 0.482
- interaction score (Tif4631): 0.672
- interaction score (Las17): 0.875
- interaction score (Arc18): 0.878
- interaction score (Myo5): 0.901
- interaction score (Yor1): 0.488
- interaction score (Arc15): 0.898
- interaction score (Osh2): 0.755
- interaction score (Cdc3): 0.515
- interaction score (Sla2): 0.646
- interaction score (Pfk1): 0.867
- interaction score (Aim21): 0.755
- interaction score (Bzz1): 0.818
- interaction score (Sbp1): 0.832
- interaction score (Vrp1): 0.919
- interaction score (Pab1): 0.797
- interaction score (Ygl242c): 0.942
- interaction score (Pan1): 0.926
- interaction score (Sac6): 0.823
- interaction score (Ssb2): 0.932
- interaction score (Smi1): 0.562
- interaction score (Srv2): 0.649

Substance: Myo5 with SH3 swap-optMyo3 (from UniProt Q04439)
- interaction score (Lsb3): 0.643
- interaction score (Pkh2): 0.095
- interaction score (Chc1): 0.598
- interaction score (Arc40): 0.97
- interaction score (Arc19): 0.78
- interaction score (Bbc1): 0.767
- interaction score (Rvs167): 0.53
- interaction score (Hek2): 0.401
- interaction score (Sfk1): 0.746
- interaction score (Cmd1): 0.458
- interaction score (Hsp104): 0.774
- interaction score (Cdc10): 0.379
- interaction score (Sla1): 0.56
- interaction score (Mid2): 0.868
- interaction score (Bmh1): 0.833
- interaction score (Tdh3): 0.971
- interaction score (Ysc84): 0.475
- interaction score (Syp1): 0.543
- interaction score (Ssb1): 0.942
- interaction score (Nap1): 0.482
- interaction score (Ste20): 0.425
- interaction score (Tif4631): 0.689
- interaction score (Las17): 0.879
- interaction score (Arc18): 0.88
- interaction score (Myo5): 0.907
- interaction score (Yor1): 0.481
- interaction score (Ssa1): 0.91
- interaction score (Arc15): 0.903
- interaction score (Osh2): 0.762
- interaction score (Cdc3): 0.457
- interaction score (Sla2): 0.664
- interaction score (Aim21): 0.767
- interaction score (Bzz1): 0.835
- interaction score (Sbp1): 0.835
- interaction score (Vrp1): 0.92
- interaction score (Pab1): 0.795
- interaction score (Ygl242c): 0.944
- interaction score (Pan1): 0.936
- interaction score (Sac6): 0.836
- interaction score (Ssb2): 0.935
- interaction score (Smi1): 0.562
- interaction score (Srv2): 0.656

Substance: Myo5 with SH3 controlMyo5 (from UniProt Q04439)
- interaction score (Lsb3): 0.624
- interaction score (Pkh2): 0.102
- interaction score (Chc1): 0.578
- interaction score (Arc40): 0.952
- interaction score (Arc19): 0.766
- interaction score (Bbc1): 0.758
- interaction score (Rvs167): 0.5
- interaction score (Hek2): 0.36
- interaction score (Sfk1): 0.716
- interaction score (Cmd1): 0.582
- interaction score (Hsp104): 0.76
- interaction score (Cdc10): 0.374
- interaction score (Sla1): 0.539
- interaction score (Mid2): 0.857
- interaction score (Bmh1): 0.82
- interaction score (Tdh3): 0.965
- interaction score (Ysc84): 0.463
- interaction score (Syp1): 0.527
- interaction score (Ssz1): 0.83
- interaction score (Ssb1): 0.929
- interaction score (Nap1): 0.463
- interaction score (Ste20): 0.421
- interaction score (Tif4631): 0.662
- interaction score (Las17): 0.877
- interaction score (Arc18): 0.87
- interaction score (Myo5): 0.898
- interaction score (Yor1): 0.432
- interaction score (Ssa1): 0.902
- interaction score (Arc15): 0.901
- interaction score (Osh2): 0.745
- interaction score (Cdc3): 0.433
- interaction score (Sla2): 0.644
- interaction score (Pfk1): 0.855
- interaction score (Aim21): 0.756
- interaction score (Bzz1): 0.823
- interaction score (Sbp1): 0.827
- interaction score (Vrp1): 0.912
- interaction score (Pab1): 0.785
- interaction score (Ygl242c): 0.929
- interaction score (Pan1): 0.926
- interaction score (Sac6): 0.825
- interaction score (Ssb2): 0.93
- interaction score (Smi1): 0.532
- interaction score (Srv2): 0.628

Substance: Myo5 with SH3 extantMyo5 (from UniProt Q04439)
- interaction score (Lsb3): 0.62
- interaction score (Pkh2): 0.11
- interaction score (Chc1): 0.568
- interaction score (Arc40): 0.969
- interaction score (Arc19): 0.768
- interaction score (Bbc1): 0.762
- interaction score (Rvs167): 0.503
- interaction score (Hek2): 0.321
- interaction score (Sfk1): 0.736
- interaction score (Cmd1): 0.26
- interaction score (Hsp104): 0.758
- interaction score (Cdc10): 0.366
- interaction score (Sla1): 0.523
- interaction score (Mid2): 0.864
- interaction score (Bmh1): 0.815
- interaction score (Tdh3): 0.97
- interaction score (Ysc84): 0.463
- interaction score (Syp1): 0.513
- interaction score (Ssz1): 0.835
- interaction score (Ssb1): 0.942
- interaction score (Nap1): 0.48
- interaction score (Ste20): 0.401
- interaction score (Tif4631): 0.665
- interaction score (Las17): 0.876
- interaction score (Arc18): 0.868
- interaction score (Myo5): 0.901
- interaction score (Yor1): 0.454
- interaction score (Ssa1): 0.914
- interaction score (Arc15): 0.9
- interaction score (Osh2): 0.756
- interaction score (Cdc3): 0.422
- interaction score (Sla2): 0.621
- interaction score (Pfk1): 0.869
- interaction score (Aim21): 0.762
- interaction score (Bzz1): 0.814
- interaction score (Sbp1): 0.824
- interaction score (Vrp1): 0.917
- interaction score (Pab1): 0.8
- interaction score (Ygl242c): 0.938
- interaction score (Pan1): 0.926
- interaction score (Sac6): 0.823
- interaction score (Ssb2): 0.932
- interaction score (Smi1): 0.518
- interaction score (Srv2): 0.632

Substance: Myo5 with SH3 SH3-depleted (from UniProt Q04439)
- interaction score (Lsb3): 0.339
- interaction score (Chc1): 0.599
- interaction score (Arc40): 0.949
- interaction score (Arc19): 0.469
- interaction score (Bbc1): 0.139
- interaction score (Rvs167): 0.0148
- interaction score (Hek2): 0.342
- interaction score (Sfk1): 0.219
- interaction score (Cmd1): 0.27
- interaction score (Hsp104): 0.771
- interaction score (Cdc10): 0.289
- interaction score (Sla1): 0.27
- interaction score (Mid2): 0.79
- interaction score (Bmh1): 0.821
- interaction score (Tdh3): 0.969
- interaction score (Ysc84): 0.281
- interaction score (Syp1): 0.199
- interaction score (Ssz1): 0.853
- interaction score (Ssb1): 0.94
- interaction score (Nap1): 0.514
- interaction score (Ste20): 0.28
- interaction score (Tif4631): 0.689
- interaction score (Las17): 0.367
- interaction score (Arc18): 0.775
- interaction score (Myo5): 0.763
- interaction score (Yor1): 0.144
- interaction score (Arc15): 0.877
- interaction score (Osh2): 0.0609
- interaction score (Cdc3): 0.288
- interaction score (Sla2): 0.341
- interaction score (Pfk1): 0.874
- interaction score (Aim21): 0.454
- interaction score (Bzz1): 0.34
- interaction score (Sbp1): 0.852
- interaction score (Vrp1): 0.606
- interaction score (Pab1): 0.813
- interaction score (Ygl242c): 0.95
- interaction score (Pan1): 0.616
- interaction score (Sac6): 0.766
- interaction score (Ssb2): 0.946
- interaction score (Smi1): 0.547
- interaction score (Srv2): 0.398
